This data set concerns the molecule itself. Kind of data set: crystal structure; sitting-drop vapor diffusion at 20 °C, 8 mg/ml GFAT-1; 0.1 M Bis tris propane pH 8.5-9.0, 0.2-0.4 M potassium sodium tartrate, 20% (w/v) PEG3350; SEC buffer with Frc6P, 50 mM L-Arg and 50 mM L-Glu; two monomers in the asymmetric unit.

B1: human glutamine fructose-6-phosphate amidotransferase-1 (GFAT-1) isoform 2, full length, with internal His6-tag (enzyme, UniProt Q06210-2 1-681, looked up)
chain: MCGIFAYLNYHVPRTRREILETLIKGLQRLEYRGYDSAGVGFDGGNDKDWEANACKIQLIKKKGKVKALDEEVHKQQDMDLDIEFDVHLGIAHTRWATHGEPSPVNSHPQRSDKNNEFIVIHNGIITNYKDLKKFLESKGYDFESETDTETIAKLVKYMYDNRESQDTSFTTLVERVIQQLEGAFALVFKSVHFPGQAVGTRRGSPLLIGVRSEHKLSTDHIPILYRTGKDKKGSCNLSRVDSTTCLFPVEEKAVEYYFASDASAVIEHTNRVIFLEDDDVAAVVDGRLSIHRIKRTAGDHPGRAVQTLQMELQQIMKGNFSSFMQKEIFEQPESVVNTMRGRVNFDDYTVNLGGLKDHIKEIQRCRRLILIACGTSYHAGVATRQVLEELTELPVMVELASDFLDRNTPVFRDDVCFFLSQSGETADTLMGLRYCKERGALTVGITNTVGSSISRETDCGVHINAGPEIGVASTKAYTSQFVSLVMFALMMCDDRISMQERRKEIMLGLKRLPDLIKEVLSMDDEIQKLATELYHQKSVLIMGRGYHYATCLEGALKIKEITYMHSEGILAGELKHGPLALVDKLMPVIMIIMRDHTYAKCQNALQQVVARQGRPVVICDKEDTETIKNTKRTIKVPHSVDCLQGILSVIPLQLLAFHLAVLRGYDVDFPRNLAKSVTVE
modifications: phosphoserine at 243 (found in mass spectrometry and in the crystal structure)
notes: human GFAT-1 isoform 2 (glutamine fructose-6-phosphate amidotransferase-1, EC 2.6.1.16), full length; residue numbers run to 681 (C-loop 670-681); His6 inserted between Gly299 and Asp300; Initial methionine removed in the purified protein; also called GFAT-1 WT; wild type GFAT-1; source: Sf21 insect cells (MultiBac baculovirus), purified (Ni-NTA, SEC); not shown: His6, internal (after residue …)
B1: the “stoichiometry N” value worked out at 2.

B2: human GFAT-1 G451E (isoform 2, full length, with internal His6-tag) (enzyme, UniProt Q06210-2 1-681, looked up)
chain: MCGIFAYLNYHVPRTRREILETLIKGLQRLEYRGYDSAGVGFDGGNDKDWEANACKIQLIKKKGKVKALDEEVHKQQDMDLDIEFDVHLGIAHTRWATHGEPSPVNSHPQRSDKNNEFIVIHNGIITNYKDLKKFLESKGYDFESETDTETIAKLVKYMYDNRESQDTSFTTLVERVIQQLEGAFALVFKSVHFPGQAVGTRRGSPLLIGVRSEHKLSTDHIPILYRTGKDKKGSCNLSRVDSTTCLFPVEEKAVEYYFASDASAVIEHTNRVIFLEDDDVAAVVDGRLSIHRIKRTAGDHPGRAVQTLQMELQQIMKGNFSSFMQKEIFEQPESVVNTMRGRVNFDDYTVNLGGLKDHIKEIQRCRRLILIACGTSYHAGVATRQVLEELTELPVMVELASDFLDRNTPVFRDDVCFFLSQSGETADTLMGLRYCKERGALTVGITNTVESSISRETDCGVHINAGPEIGVASTKAYTSQFVSLVMFALMMCDDRISMQERRKEIMLGLKRLPDLIKEVLSMDDEIQKLATELYHQKSVLIMGRGYHYATCLEGALKIKEITYMHSEGILAGELKHGPLALVDKLMPVIMIIMRDHTYAKCQNALQQVVARQGRPVVICDKEDTETIKNTKRTIKVPHSVDCLQGILSVIPLQLLAFHLAVLRGYDVDFPRNLAKSVTVE
notes: human GFAT-1 isoform 2, full length, with G451E; His6 inserted between Gly299 and Asp300 (made from pFL-hGFAT1-His299); Same construct as m1 with the point mutation G451E; source: Sf21 insect cells (MultiBac baculovirus), purified (Ni-NTA, SEC)
In the case of B2, the binding result is recorded as “binds”.

A word on the stoichiometry N: it is the number of molecules, sites or subunits per partner or assembly.

The values above are taken from article PMC7000685 (Nature Communications, 2020).
